Assay results from patent publication US8524227B2, “Anti-IL-TIF antibodies” (ZymoGenetics, Inc., priority 2002, dated 2013).

Tests used:
IL-TIF [1] = molecular target: T1, IL-TIF (Homo sapiens, UniProt Q9GZX6); assay: Inhibition of IL-TIF-induced proliferation of BaF3/CRF2-4/zcytor11 cells by soluble receptors; format: cell-based; conditions: 100 pg/ml IL-TIF
T1 sequence (Q9GZX6 13-179 limits assumed): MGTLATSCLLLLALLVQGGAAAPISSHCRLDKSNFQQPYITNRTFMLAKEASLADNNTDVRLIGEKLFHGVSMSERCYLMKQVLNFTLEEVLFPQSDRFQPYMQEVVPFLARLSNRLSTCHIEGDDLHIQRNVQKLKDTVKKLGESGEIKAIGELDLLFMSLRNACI
Description: BaF3/CRF2-4/zcytor11 cells described herein were spun down and washed in PBS 2 times to ensure the removal of the mIL-3, and then spun a third time and re-suspended in the complete media (RPMI 1640, 10% FBS, 1% GlutaMAX, 1% Sodium Pyruvate), but without mIL-3 (hereinafter referred to as “mIL-3 free media”). Cells were then counted in a hemocytometer. Cells were plated in a 96-well format at 5000 cells per well in a volume of 100 μl per well using the mIL-3 free media.
IL-TIF protein (SEQ ID NO:3) was diluted to 200 pg/ml in mIL-3 free media. Zcytor16-Fc4 fusion protein (described herein) was diluted to 1 μg/ml in the mIL-3 free/IL-TIF media on the top row of the plate, and then diluted serially 1:2 down the remaining 7 rows on the 96-well plate, leaving a volume of 100 μl in each well. This was then added to the 100 μl of cells, for a final IL-TIF concentration of 100 pg/ml in all wells, and final Zcytor16-Fc4 concentrations of approximately […], 0.016, and 0.008 μg/ml in a total assay volume of 200 μl. CRF2-4/zcytor11-Fc4 was diluted to 8 μg/ml in the mIL-3 free/IL-TIF media on the top row of the plate, and then diluted serially 1:2 down the remaining 7 rows on the 96-well plate, leaving a volume of 100 μl in each well. This was then added to the 100 μl of cells, for a final IL-TIF concentration of 100 pg/ml in all wells, and final CRF2-4/zcytor11-Fc4 concentrations of approximately […], 0.25, 0.125 and 0.063 μg/ml, in a total assay volume of 200 The assay plates were incubated at 37° C., 5% CO2 for 4 days at which time Alamar Blue (Accumed, Chicago, Ill.) was added at […]. Plates were again incubated at 37° C., 5% CO2 for 16 hours. Alamar Blue gives a fluourometric readout based on number of live cells, and is thus a direct measurement of cell proliferation in comparison to a negative control. Plates were read on the Wallac Victor 2 1420 Multilabel Counter (Wallac, Turku, Finland) at wavelengths 530 (Excitation) and 590 (Emmssion). […] IL-TIF alone stimulated the cells 13-fold over background.

IL-TIF [2] = molecular target: T1, IL-TIF; assay: SAA induction by IL-TIF in mice, inhibition by zcytor16-Fc4; format: in vivo; conditions: 3 μg IL-TIF IP with 20-100 ug zcytor16-Fc4 IP 15 minutes before
Description: To assess whether zcytor16 could inhibit the SAA induction by IL-TIF mice (female, C3H/HEJ, 8 weeks old; Jackson Labs, Bar Harbor, Me.) were divided into five groups of three animals each and treated by IP injection of proteins as shown in Table 15 below:
The zcytor16 injections preceded the IL-TIF injection by 15 minutes. Both protein injections were given by the intraperitoneal route. A blood sample was taken from each mouse prior to treatment, then at 2 and 6 hours after treatment. Serum was prepared from each of the samples for measurement of SAA and IL-TIF.
An ELISA was performed as described previously to determine the level of SAA in mice treated with IL-TIF and a soluble receptor for IL-TIF, zcytor16-Fc4 described herein.

[3] = LPS-induced endotoxemia mouse model; format: in vivo, mice
Description: Briefly, six month Balb/c (CRL) female mice were injected with 25 μg LPS (Sigma) in sterile PBS intraperitoneally (IP). Serum samples were collected at 0, 1, 4, 8, 16, 24, 48 and 72 hr from groups of 8 mice for each time point. Serum samples were assayed for inflammatory cytokine levels. IL-1b, IL-6, TNFa, IL-10 and serum amyloid A protein (SAA) levels were measured using commercial ELISA kits purchased from Biosource International (Camarillo, Calif.).
Body temperatures in a separate group of animals were monitored by surgically implanted telemetry devices over the course of the 72 hr experiment. Body temperatures in mice dropped maximally by 2° C. from 37.07° C. to 34.98° C. 30 minutes after LPS injection.
The ability of zcytor16 treatment to effect proinflammatory indicators induced with a single 25 μg LPS dose IP in mice was tested. All samples were analyzed for SAA, IL-TIF and circulating neutrophil counts. Subsets from each group were analyzed for particular cytokine levels (1 hour samples were screened for TNF alpha, 4 hour samples were analyzed for IL-6) Animals were sacrificed at indicated time points in Table 17 below and whole blood and serum were collected and aliquoted for analysis.
72 B1/6 female mice (CRL) were given a single IP dose of zcytor16 as described in Table 17, below. Control mice were C57B1/6 (CRL).
30 minutes later, they received another IP injection of 25 μg LPS (Sigma) in 100 μl, to initiate an endotoxemia cascade.
To assess whether zcytor16 could inhibit the SAA induction in the LPS-induced endotoxemia mouse model, mice were injected with Zcytor16, 30 minutes prior to LPS injection, as shown in Table 17 in Example 31C above.
An ELISA to determine SAA levels in the 4 hour and 8 hour samples was performed using the Mouse SAA Immunoassay Kit (BioSource International, California) following the manufacturer's directions.

B1: zcytor16-Fc4: soluble receptor for IL-TIF, zcytor16 fused to Fc4; IL-TIF antagonist (protein)
chain: TQSTHESLKPQRVQFQSRNFHNILQWQPGRALTGNSSVYFVQYKIYGQRQWKNKEDCWGTQELSCDLTSETSDIQEPYYGRVRAASAGSYSEWSMTPRFTPWWETKIDPPVMNITQVNGSLLVILHAPNLPYRYQKEKNVSIEDYYELLYRVFIINNSLEKEQKVYEGAHRAVEIEALTPHSSYCVVAEIYQPMLDRRSQRSEERCVEIPEPRSSDKTHTCPPCPAPEAEGAPSVFLFPPKPKDTLMISRTPEVTCVVVDVSHEDPEVKFNWYVDGVEVHNAKTKPREEQYNSTYRVVSVLTVLHQDWLNGKEYKCKVSNKALPSSIEKTISKAKGQPREPQVYTLPPSRDELTKNQVSLTCLVKGFYPSDIAVEWESNGQPENNYKTTPPVLDSDGSFFLYSKLTVDKSRWQQGNVFSCSVMHEALHNHYTQKSLSLSPGK
concentrations completely inhibiting proliferation (IL-TIF [1]): 0.025 to 1 µg/mL
concentrations partially inhibiting proliferation, lower end (IL-TIF [1]): ≥ 8 ng/mL
inhibition of the proliferative effect of IL-TIF (IL-TIF [1]): strong dose-dependant inhibition
level of SAA (IL-TIF [2]): reduction in the level of SAA induced by IL-TIF alone to background levels
effect on SAA induction ([3]; 10 ug 30 minutes prior to LPS): did not have significant effect
reduction of the SAA induction ([3]; 100 ug 30 minutes prior to LPS, 4 hr and 8 hr): about 50%
neutrophil count in circulation ([3]; 1 hr time point): reduced neutrophil count
SAA levels relative to PBS injected mice ([3]; 4 hour, 100 μg or 10 μg): dose-dependant, statistically significant reduction
SAA levels relative to PBS injected mice ([3]; 8 hour, 100m): statistically significant reduction
TNF-alpha and IL-6 level ([3]; mouse, in vivo): no significant change
